Laboratory results taken from a protein production outcome set (Wang et al. 2014).

Experiment: label from the status in PepcDB records
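Further: failed if final PepcDB status was selected cloned or expressed and not failed if soluble or beyond.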

Sequence	protein production
MVPSTFSRLKAARCLPVVLAALIFVGCGTHTPDQSTAYMQGTAQADSAFYLQQMQQSSDDTRINWQLLAIRALVKEGKTGQAVELFNQLPQELNDSQRREKTLLAVEIKLAQKDFAGAQNLLAKITPADLEQNQQARYWQAKIDASQGRPSIDLLRALIAQEPLLGAKEKQQNIDATWQALSSMTQEQANTLVINADENILQGWLDLQRVWFDNRNDPDMMKAGIADWQKRYPNNPGAKMLPTQLVNVKAFKPASTNKIALLLPLNGQAAVFGRTIQQGFEAAKNIGTQPVAAQVAAAPAADVAEQPQPQTADGVASPAQASVSDLTGDQPAAQPVPVSAPATSTAAVSAPANPSAELKIYDTSSQPLSQILSQVQQDGASIVVGPLLKNNVEELLKSNTPLNVLALNQPENIENRVNICYFALSPEDEARDAARHIRDQGKQAPLVLIPRSSLGDRVANAFAQEWQKLGGGTVLQQKFGSTSELRAGVNGGSGIALTGTPITPRATTDSGMTTNNPTLQTTPTDDQFTNNGGRVDAVYIVATPGEIAFIKPMIAMRNGSQSGATLYASSRSAQGTAGPDFRLEMEGLQYSEIPMLAGGNLPLMQQALSAVNNDYSLARMYAMGVDAWSLANHFSQMRQVQGFEINGNTGSLTANPDCVINRKLSWLQYQQGQVVPAS	not failed
MKLGKTLAISCISMLSLSIWTQQVSAASAFDPSSEWMLGDWNGERTALKQKGYDFSIGYTGEMATVLDSKDTSRHGTEYAGQVALGTHFDLNKILGWQDTEAQITLTHRDGHDIKNKAAALEGQLSSTQEVYGRGQTTRLTDLWIKKKFFDQALDIKVGRFGESEDFNPAACDFQNLALCGDQMGNWNAGDQIHNWPVSQWAARVKYNVTPEVFAQVGVYEYNPENLKRSKGFNLSTDGSKGAVIPVEVVWQPKSGLINGLAGEYRAGYYYSTADANEINSTNKDHGQGGWLSFIQQLTAVNGDTSRGLKVVGQATFFDEATSRVKNTQSLAFAYKGLVDTRPKDELAIGFSRINLNDDAYLGKDVDSEYNSEIYYGIEATNWLTVRPNVQYVRHVGALKDGNNAWVGGIKFQTVF	failed
MSVQKAVKSSHYEAESNMEQDIVRKAWVFKPSGLNFIWGGDSRYWVIPNEDRTPAELKKVSWLEVTGSYDKIEPGKTYRIGFKISFTADATGWDQAPVFMSAKIGKKGRTIWKRIKSVNNNFDKLKGGTGPVNIPDETDGRFEIFVSPKVAINQDTKLQFGLYEVWTGKWKTGLLIYEAFVEEV	failed
GHMAKAYKQAGVDIEAGYQAVALMKEHVQKTMRPEVLGGIGGFGGLFDLSALGYRQPVLISGTDGVGTKLKLAFLLDRHDTIGIDCVAMCVNDIIVQGAEPLFFLDYIACGKAVPEKIAAIVKGVADGCVEAGCALIGGETAEMPGMYDEDEYDLAGFAVGVAEKERLITGETIQAGDALVGLPSSGLHSNGYSLVRRIVFEQAKLSLDEIYEPLDVPLGEELLKPTRIYAKLLRSVRERFTIKGMAHITGGGLIENIPRMLPPGIGARIQLGSWPILPIFDFLREKGSLEEEEMFSVFNMGIGLVLAVSPETAAPLVEWLSERGEPAYIIGEVAKGAGVSFAGGGRA	not failed
MPEQTYMYAYVTLPHHDQRERYTQKCYRDGRRIVLASYDLMGSERFSFKEKLRKSMKGMNESAERWVSEVRQGENLNSIDNYYRLYKGKI	failed
MGAATRVAPMTAAASSTKAWLMAARPQTLPAGAAPVIVGTGLAVYHGVFAPLPALFALFGALLLQIGTNFANDYYDAVRGADTEDRDGFTRVTAGGLIEPAAVKRAMYATFGLSMVIGLYLVAVGGVPILVVGLASIVAGITYSGGPLPYGYRGLGDLFVFVFFGLVAVAGTYYVQAAAHGGWFPLWIPEGTLPAAAVVAGLPAAGFSTAILVVNNIRDRETDAEAGKHTLAVILGYRLSRIEWSLMAGLGYAIPVVFWLDGYPATVLLPLVTAPLAIAIGRTVWNRTDGEALNPALQRTGKLLFAHSVCFALGFAAPAVI	failed
MHTNWQVCSLVVQAKSERISDISTQLNAFPGCEVAVSDAPSGQLIVVVEAEDSETLIQTIESVRNVEGVLAVSLVYHQQEEQGEETP	not failed
RNYNNPVVLCGFAGSTPTGVLAASYIVETLGMHQVAHLISQHIPPVAVFVGGKLRHPFRIYANNSNTVLVAMCEVPISSAHIYEISNTLMNWIDQVGASEIVIMEGSPANGIPEERPVFAVAEKPKLDKFKKAGIQPADSAIIAGMGGGILNECLVRKITGLSFITPTSVDIPDPGAVLSIIEAINKAYNLKIKTDLLEEQVKALDEQIKKIEEQYKELQEKQKEPQSMYG	not failed
MMREFEIERQFNIKIEYIKPNKGVYFVKTNKGNKCLKKINYGIQKLLFVYAAKEHLINNGFKYVDKYCLNTEGNPYALVNEDIYTLSEWIEGRECSFYDTEDLVKASKTLAKMHECSKGYEPPENSKLKSDLGRWPHLIEKRVKALDKMRDMARKKGNKKDFDMNYIKNVDFFKEQGIKSMNVLKNSKYESLCAVAEEEKGFCHHDYTYHNIIINNEDNVYVIDFDYCKRELRAYDISNFMIKVLKRSNWSMKTAELILDSYSSISKLDDDEYGVIYAFLIFPQRFWRLANRYYYNEVNWGQNTFNNKMEELIEERERYIKFIEDFREAYNLQ	failed
MLPKRQLFLDRLNQALAWSQFSGVPGALLLIDLGLPAHLDGSPSLSPDAEENLEIIANRLQAYVRPHETLAHLNHHQFGLLLLDPDVQLRAEERAHGIQTLIRDRLAGFEGGAHIGIVPLTPETPATVLLQAAEAAAMTARSQQQGHLSLEASLEHHHHHH	not failed
MAHNYLLEIGLEEIPAHVVTPSIKQLVQKVTAFLKENRLTYDSIDHFSTPRRLAIRINGLGDQQPDIEEDAKGPARKIAQDADGNWTKAAIGFTRGQGLTVDDITFKTIKGTDYVYVHKLIKGKMTKEILTGLKEVVESINFPTMMKWANFDFKYVRPIRWLVSILDEEVLPFSILDVTAGRRTEGHRFLGEAVELANAEEYEAKLHDQFVIVDADERKQLISNQIKAIAESNRWNVTPNPGLLEEVNNLVEWPTAFNGGFDEKYLAIPEEVLITSMRDHQRFFFVRDQAGKLLPNFISVRNGNEEFIENVVRGNEKVLTARLEDAAFFYEEDQKHDINYYVDRLKKVSFHDKIGSMYEKLQRVNSIAKVIGNTLNLNQTELDDIDRATMIYKFDLVTGMVGEFSELQGVMGEKYAQLNGENQAVAQAIREHYMPNSAEGDLPESVTGAVVALADKFDNIFSFFSAGMIPSGSNDPYALRRHAYGIVRILNSRDWQLDLNQFKSQVKTELAENGTAFGVDVDQNFDQVLNFFNDRIKQLLDHQKISHDIVETVLTGNNHDVTEIIEAAQVLADAKASSTFKDDIEALTRVQRIATKNEESGELNVDPQLFNNASEGELFDQIIKIEAANNLTMSQLFAKLCELTPAISKYFDATMVMDKDENIKRNRLNMMSRLANLILKIGDLTNVLVK	failed
MTSETNIRTLVVDDSDFFAEMTADTLTQQHDIESVAANSAAEALERLEGGGFDCVVSDYEMPEMDGLELLEAIRETNPSIPFILLTGRGDEETASAAIAAGVADYLLKLEVVEDKQYGRLANRIENVVSQERTRKKFESLVSDSPDGIVHLTTNGTILSVNPSMAGRLGADPDTLVGQQLSAVMDSEAANQRLEAGKSAVENGTATRSEDAVGGRHYHNQYIPVDSHRKSDTFQLVSRDITERVERQRELERQNDRLEEFASVVSHDLRNPLNVAQGAVDLLGEPADSKEAELVAKIDRSLDRMGCIIEDVLTLARQGQTVSDPQETELSTLASTAWTWIEAEQASMSVASSTKLAADSGRAQDLLANLFRNAIEHNDGDVEIEIGLLESNDGFYIADNGEGVEGDAEDVFEMGYSSTKDGTGFGLAIVEQVAEAHGWEVSLTESDSGGARFEVSSVELHD	failed
MKLSQQSLSIIESAIQKAVGKYVCNCEQTVVTDIHLQPDQTSGQLNIYNDDDEELANVMVEEWATYDGDDFLENIEPGLRSILCRMKDAGDFDKVTILKPYSFVLVDEDKETVTELLLVDDDTMLVNDELLKGLDKELDDFLKELLEK	failed
MAMSFSGAVLTGMASSFHSGAKQSSFGAVRVGQKTQFVVVSQRKKSLIYAAKGDGNILDDLNEATKKASDFVTDKTKEALADGEKAKDYVVEKNSETADTLGKEAEKAAAYVEEKGKEAANKAAEFAEGKAGEAKDATK	failed
MVINIRRSRPDEGDKLTAIWCRSVDATHDFLTKAYRKELEEMVRAFLPEAPLWVAVSTEDQPIAFMLLTGDHMDALFVDPDVRGCGVGKLLIEHALSLTPKLTTNVNEQNEQAVGFYQKMGFRVTGRSETDDLGQPYPLLNLMYEQQAEADYD	not failed
MKKLAIAISTILLSGAAYAGNTADVELFNADDNDVNIFQMSPAVGNDADVLIRNSDENEVDIYQMGRHNDAVVRVRNGSDDNDLMIDQDGRHNRAVLKARLGSDENDFAIEQDGRLNLGKVIADDSDNNNGLIDQRGRRNEAYINFDSASDNSNNKIVQRGRRNEGEISVMGGSNNGTLKIRQKGHDNDSKIHVYGGSGNEALTKINGDDNTTYTAFYAGASDNDTTILMKNDSLDNTVYAVVVGGSFNEADVTIDSSNDNFVSVAQWGDSSMAEVTLENGSNDNWIMINQTNNDMATVTADNSSYNAVVITQL	failed
MMPLSTPDFASIRDTLLRDLQNLRADADIAPDSDYFVRASSVASAVEGLYQHQSWIARQIFPDTADSEYLEQHARLRGIVRKPAAAASGTLRISGNAGAVVSGSLQLRIGEQLYATPAANPDGSPYAARLDANGQAELPIFASQAGAAGNQPESLPVELMQAPSGVSAKALLLSMRNGVDVEDDAALLDRLLELIRRPPAGGNRHDYRRWAMEVKGVSAAYVYPLRRGLGTVDVVITANGDLPSQEILNNVQAHIEDLRPVTAKSCLVLAPTPRPVDIDVALNLGGANLDAFTPLLQQTLQAYFAGLAPGERLVKSRIEALISDLPGVQDRQLNSPAGNVDPVSDPTKVEWLRLGKLTVGLLKLEHHHHHH	not failed
MKKVFIPINTKIPVERQFPNRVPIWGNYEFIISTKEPEQEYDYVVVLDDIEYSLRLMCCKQNICLFTGEPPYVKLYPRKYLNQFGHVYTCQSSVLKRDNACLSYPALPWMLYYNFYNDKQKEELLIDYDFLKNRPTLQRKNKICLFTSNKKISKGHIERIKFALKLQEEMPDLIDIYGSGFTNVDYKYEVMVQYKYAIVIENCSYPYYWTEKLADTFLSGCYPIYFGDPHIGDFFSKEEMAVIDIRNFDESKQTIKKIIDNNVYEKQYENICHARDKILDKYNMFSLISSTLDSIPAKLDKEKLLLSPMRLSVFDRIRNRIYRLFYLEHHHHHH	failed
MPNNVKITSSHRVLMIALLAAAFACYLLVEPYINSIVMAFIISLLMFPVHEWFERKMPKHKNSASLLTCVVLTFIIVIPLLFVFAAIVQQGSVFSQNTYKWVTNGGIQDIFQHPWVIKGLSIVNEYLPFDKIEPKAIAEKIGQFATTFGSNLVAISAKILGDATNFLMDFFLMLFVLFFLLRDHDKIISAIRHILPLSRSQEDRILTEIEQVSKSAVMGSFLTAIAQGLAGGIGMWLAGFPGLFWGTMMGFASFIPVVGTALIWIPAAAYLFLTGDMTWAIFLTAWSVVIVGSIDNLLRPLLMQGSAGMNTLMIFFSLLGGLHLFGLIGLIYGPLIFAVTMVLFNIYEEEFKDFLNQQDNS	failed
MLPMLLWLVANLFLAPAAEGFHGMNKTNTWAVILSSSRYFFNLRHTTNALAMYHLCRKHGMDDDHILVFLSDSYACDPRKPNPATIYGAPAQAEQPNLYGCNIRVDYASYDVGVRRFLGVLQGRYDENTPPSRRLDTDENSNIIIYAAGHSAEKFFKFQDSEFMSSTDIADTLMMMWEQRRYRKLVFLVDTCRALSLCLEIKAPNVVCLASSEAHLDSYSHHLDPPSGFTVITRWTFEFLEVLKDSKCRPENGEVTLLQKSFYDFNYGPERLSLPQPLSEPAHFDAVNRPNAIREWKMDEFFCEQDRDKIPVELRYDLF	failed
